These results are taken from IntAct's records for PubMed 19666485.

The labels stand for the following.
B1: Chromodomain-helicase-DNA-binding protein 1-like (Homo sapiens), Q86WJ1-1 (parent)
chain: MERAGATSRGGQAPGFLLRLHTEGRAEAARVQEQDLRQWGLTGIHLRSYQLEGVNWLAQRFHCQNGCILGDEMGLGKTCQTIALFIYLAGRLNDEGPFLILCPLSVLSNWKEEMQRFAPGLSCVTYAGDKEERACLQQDLKQESRFHVLLTTYEICLKDASFLKSFPWSVLVVDEAHRLKNQSSLLHKTLSEFSVVFSLLLTGTPIQNSLQELYSLLSFVEPDLFSKEEVGDFIQRYQDIEKESESASELHKLLQPFLLRRVKAEVATELPKKTEVVIYHGMSALQKKYYKAILMKDLDAFENETAKKVKLQNILSQLRKCVDHPYLFDGVEPEPFEVGDHLTEASGKLHLLDKLLAFLYSGGHRVLLFSQMTQMLDILQDYMDYRGYSYERVDGSVRGEERHLAIKNFGQQPIFVFLLSTRAGGVGMNLTAADTVIFVDSDFNPQNDLQAAARAHRIGQNKSVKVIRLIGRDTVEEIVYRKAASKLQLTNMIIEGGHFTLGAQKPAADADLQLSEILKFGLDKLLASEGSTMDEIDLESILGETKDGQWVSDALPAAEGGSRDQEEGKNHMYLFEGKDYSKEPSKEDRKSFEQLVNLQKTLLEKASQEGRSLRNKGSVLIPGLVEGSTKRKRVLSPEELEDRQKKRQEAAAKRRRLIEEKKRQKEEAEHKKKMAWWESNNYQSFCLPSEESEPEDLENGEESSAELDYQDPDATSLKYVSGDVTHPQAGAEDALIVHCVDDSGHWGRGGLFTALEKRSAEPRKIYELAGKMKDLSLGGVLLFPVDDKESRNKGQDLLALIVAQHRDRSNVLSGIKMAALEEGLKKIFLAAKKKKASVHLPRIGHATKGFNWYGTERLIRKHLAARGIPTYIYYFPRSKSAVLHSQSSSSSSRQLVP

The variants in the assay derive from B1. As to conditions: with parp1_human PARP1, P09874.
Sequence of parp1_human PARP1, P09874 (P09874 whole entry): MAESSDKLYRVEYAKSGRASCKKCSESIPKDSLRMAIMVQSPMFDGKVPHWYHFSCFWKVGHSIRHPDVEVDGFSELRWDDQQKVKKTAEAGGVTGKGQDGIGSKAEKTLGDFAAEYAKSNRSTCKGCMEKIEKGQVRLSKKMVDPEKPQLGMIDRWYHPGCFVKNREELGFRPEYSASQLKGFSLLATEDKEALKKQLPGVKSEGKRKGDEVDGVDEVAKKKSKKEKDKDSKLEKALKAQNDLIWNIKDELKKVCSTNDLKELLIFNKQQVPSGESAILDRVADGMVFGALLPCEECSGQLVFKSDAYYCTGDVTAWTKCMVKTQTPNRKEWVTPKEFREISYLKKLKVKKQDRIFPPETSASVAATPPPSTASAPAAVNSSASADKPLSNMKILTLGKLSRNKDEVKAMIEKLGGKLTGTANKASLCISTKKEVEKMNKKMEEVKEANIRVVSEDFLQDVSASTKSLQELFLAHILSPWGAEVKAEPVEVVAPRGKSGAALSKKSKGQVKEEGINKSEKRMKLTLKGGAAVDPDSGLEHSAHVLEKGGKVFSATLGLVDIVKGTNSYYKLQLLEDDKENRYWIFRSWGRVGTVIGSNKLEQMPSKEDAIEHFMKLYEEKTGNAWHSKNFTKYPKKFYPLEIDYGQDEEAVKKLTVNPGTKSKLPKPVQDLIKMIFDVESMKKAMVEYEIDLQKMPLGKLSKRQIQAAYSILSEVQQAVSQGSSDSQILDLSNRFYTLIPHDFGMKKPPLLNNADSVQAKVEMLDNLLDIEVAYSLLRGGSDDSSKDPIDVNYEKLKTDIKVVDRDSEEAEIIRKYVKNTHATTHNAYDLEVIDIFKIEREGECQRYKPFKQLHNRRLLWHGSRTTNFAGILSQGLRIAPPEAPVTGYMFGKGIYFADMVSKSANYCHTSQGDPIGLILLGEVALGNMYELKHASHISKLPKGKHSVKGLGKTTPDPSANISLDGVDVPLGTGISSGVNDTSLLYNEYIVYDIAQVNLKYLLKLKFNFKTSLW
As to D723A, the “effect of a mutation on the interaction” value is on record as “disrupting interaction”.

Regarding E175Q, the “effect of a mutation on the interaction” value is “disrupting interaction”.
